The chains are these.
B1: clitocypin 2 (protein)
chain: MASLEDGIYRLRAVTTHNPDPGVGGEYATVEGARRPVKAEPNTPPFFAAQAWQVTRNADGQYTIKYQGLNTPFEYGFSYDELEPNAPVIAGDPKEYILQLVPSTADVYIIRAPIQRIGVDVEVGVQGNTLVYKFFPVDGSGGDRPAWRFTRE
B2: clitocypin 2 (protein)
chain: MASLEDGIYRLRAVTTHNPDPGVGGEYATVEGARRPVKAEPNTPPFFEQQIWQVTRNADGQYTIKYQGLNTPFEYGFSYDELEPNAPVIAGDPKEYILQLVPSTADVYIIRAPIQRIGVDVEVGVQGNTLVYKFFPVDGSGGDRPAWRFTRE
B3: macrocypin 1a (protein)
chain: GFEDGFYTILHLAEGQHPNSKIPGGMYASSKDGKDVPVTAEPLGPQSKIRWWIARDPQAGDDMYTITEFEIDNSIPGQWSRSPVETEVPVYLYDRIKAEETGYTCAWRIQPADHGADGVYHIVGNVRIGSTDWADLREEYGEPQVYMKPVPVIPNVYIPRWFILGYEE
B4: macrocypin 1a (protein)
chain: GFEDGFYTILHLAEGQHPNSKIPGGMYASSKDGKDVPVTAEPLGPQSKIRWWIARDPQAGDDMYTITEFRIDNSIPGQWSRSPVETEVPVYLYDRIKAEETGYTCAWRIQPADHGADGVYHIVGNVRIGSTDWADLREEYGEPQVYMKPVPVIPNVYIPRWFILGYEE
B5: macrocypin 1a (protein)
chain: GFEDGFYTILHLAEGQHPNSKIPGGMYASSKDGKDVPVTAEPLGPQSKIRWWIARDPQAGDDMYTITEFRIDNSIPGQWSRSPVETEVPVYLYDAIKAEETGYTCAWRIQPADHGADGVYHIVGNVRIGSTDWADLREEYGEPQVYMKPVPVIPNVYIPRWFILGYEE

The values that follow come from paper PMC9579014 (2022).

The first test deals with legumain (Homo sapiens) (UniProt Q99538).
Test: not given
The note with it: cited from earlier work.
On to Clitocypin (from UniProt Q9P4A2), for which the Ki was 21.5 nM.

The target in a further test is T1, legumain AEP catalytic domain (Homo sapiens, UniProt Q99538).
T1 chain: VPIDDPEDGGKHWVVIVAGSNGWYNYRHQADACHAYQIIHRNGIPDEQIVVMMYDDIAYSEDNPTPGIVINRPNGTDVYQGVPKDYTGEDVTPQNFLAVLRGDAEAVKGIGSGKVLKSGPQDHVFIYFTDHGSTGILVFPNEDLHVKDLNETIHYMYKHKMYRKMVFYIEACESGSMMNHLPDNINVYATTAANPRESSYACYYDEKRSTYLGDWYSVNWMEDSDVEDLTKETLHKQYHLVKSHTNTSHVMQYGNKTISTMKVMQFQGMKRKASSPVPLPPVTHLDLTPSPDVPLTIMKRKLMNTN
The test can be described thus: enzyme inhibition assay (AAN-AMC).
Details: not given
B1 gave a Ki of 6690 nM.
The same measure, in the same setting: as for B2, the figure is 79 nM; as for B3, 147 nM.
Same read-out and setting: the result for B4 reads 2.18 nM.
Still for that read-out and setting: the result for B5 reads 183 nM.
